Consider 19 variants from the RNAGym collection of RNA variant scans (doi:10.1073/pnas.2313332121).

The labels stand for the following.
B1: TPR 5TU (parent)
chain: GGAUCUUCUCGAUCUAACAAAAAAGACAAAUCUGCCACAAAGCUUGAGAGCAUCUUCGGAUGCAGAGGCGGCAGCCUUCGGUGGCGCGAUAGCGCCAACGUUCUCAACUAUGACACGCAAAACGCGUGCUCCGUUGAAUGGAGUUUAUCAUG

Fewer inactive variants are shown than the library holds.

The variants in the series derive from B1. Nature of the series: polymerase ribozyme fitness, log enrichment relative to wild type (log ratio); higher = more active; in vitro selection for triplet polymerase activity. The method, boiled down: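 Input and output libraries were sequenced on Illumina after a single in vitro selection round, run in triplicate on PCR-built, transcribed mutant libraries of each subunit of a heterodimeric triplet polymerase ribozyme. Selection annealed libraries to a biotinylated primer, the partner subunit and triplets, incubated them frozen at −7 °C, then gel-excised extended constructs for streptavidin-bead capture and RT-PCR. Genotypes with ≥10 input reads and ≥1 read per output were kept. Fitness is the logarithm, taken in base 2, of genotype enrichment divided by wild-type enrichment, using inverse-variance-weighted replicate averages.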
Regarding GGAUCUUCUCGAUCUAACAAAAAAGACAAAUCUGCCACAAAGCUUGAGAGCAUCUACGGAUGCAGAGGCGGCAGCCUUCGAUGGCGCGAUAGCGCCAACGUUGUCAACUAUGACACGCAAGUCGCGUGCUCCGUUGAAUGGAGUUUAUCAUG, the “polymerase ribozyme fitness (log ratio)” value is -1.56.
With GGAUCUUCUCGAUCUAACAAAAAAGACAAAUCUGCCACAAAGCUUGAGAGCAUCUACGGAUGCAGAGGCGGCAGCCUUCGGUGGCGCGAUACCGCCAACGUUCUCAACUAUGACACGCAAAACGCGUGCUCCGUUGAAAUGAGUUUAUCAUG, the “polymerase ribozyme fitness (log ratio)” value was -3.76.
With GGAUCUUCUCGAUCUAACAAAAAAGACAAAUCUGCCACAAAGCUUGAGAGCAUCUACGGAUGCAGAGGCGGCAGCCUUCGGUGGCGCCAUAGCGCCAACGUUCUCAACUAUGACACGCAAAACGCGUGCUCCGUUGAAUGGUGUUUAUCAUG the figure was at most -4.2.
As for GGAUCUUCUCGAUCUAACAAAAAAGACAAAUCUGCCACAAAGCUUGAGAGCAUCUACGGAUGCAGAGGCGGCAGCCUUCGGUGGCGCUAUAGCGCCAACGUUCUCAACUAUGAAACGCAAAACGCGUGCUCCGUUGAAUGGAGUUUAUCAUG, the “polymerase ribozyme fitness (log ratio)” value is at most -4.2.
GGAUCUUCUCGAUCUAACAAAAAAGACAAAUCUGCCACAAAGCUUGAGAGCAUCUACGGAUGCAGAGGCGGCAGCCUUCGGUCGCGCGAUAGCGCCAACUUUCUCAACUAUGACACGCAAAACGCGUGCUCCGUUGAAUGGAGUUUAUCAUG: the “polymerase ribozyme fitness (log ratio)” value was at most -4.2.
With GGAUCUUCUCGAUCUAACAAAAAAGACAAAUCUGCCACAAAGCUUGAGAGCAUCUACGGAUGCAGAGGCGGCAGCCUUCGGUUGCGCGAUAGGGCCAACGUUCUCAACUAUGACACGCAAAACGCGUGCUCCGUUGAAUGGAGUUUAUCAUG the figure was at most -4.2.
Consider GGAUCUUCUCGAUCUAACAAAAAAGACAAAUCUGCCACAAAGCUUGAGAGCAUCUACGGAUGCAGAGGCGGCAGCCUUCGGUGGCGCUAUAGCGCCAACGUUCUCAACUAUGACACGCAAAACGCGUGCUCCGUUGAAUGGAGUUUAUCAUG, for which the “polymerase ribozyme fitness (log ratio)” value is -3.06.
As for GGAUCUUCUCGAUCUAACAAAAAAGACAAAUCUGCCACAAAGCUUGAGAGCAUCUACGGAUGCAGAGGCGGCAGCCUUCGGUGGCGCCAUAGCGCCAACGUUCUCAACUAUGACACGCAAAACGCGUGCUCCGUUGAAUGGAGUUUAUCAUG, the figure is -4.12; as for GGAUCUUCUCGAUCUAACAAAAAAGACAAAUCUGCCACAAAGCUUGAGAGCAUCUACGGAUGCAGAGGCGGCAGCCUUCGGUGGCGCGAUAUCGCCAACGUACUCAACUAUGACACGCAAAACGCGUGCUCCGCUGAAUGGAGUUUAUCAUG, -1.59; as for GGAUCUUCUCGAUCUAACAAAAAAGACAAAUCUGCCACAAAGCUUGAGAGCAUCUACGGAUGCAGAGGCGGCAGCCUUCGGUGGCGCUAUAGCGCCAACGUUCCCAACUAUGACACGCAAAACUCGUGCUCCGUUGAAUGGAGUUUAUCAUG, at most -4.2.
As to GGAUCUUCUCGAUCUAACAAAAAAGACAAAUCUGCCACAAAGCUUGAGAGCAUCUACGGAUGCAGAGGCGGCAGCCUUCGGUGGCGCGAUAGCGCCAACGUUCUCAACUAUGACACGCAAAACGCGUGCUCCGUUGAAUGAAGUUUAUCAUG, the “polymerase ribozyme fitness (log ratio)” value amounted to 0.775.
With GGAUCUUCUCGAUCUAACAAAAAAGACAAAUCUGCCACAAAGCUUGAGAGCAUCUACGGAUGCAGAGGCGGCAGCCUUCGGUCGCGUGCUAGCGCCAACGUUCUCAAUUAUGACACGCAAAACGCGUGCUCCGUUGAAUGGAGCUUAUCAUG the figure was at most -4.2; with GGAUCUUCUCGAUCUAACAAAAAAGACAAAUCUGCCACAAAGCUUGAGAGCAUCUACGGAUGCAGAGGCGGCAGCCUUCGGUGGCGCGAUAACGCCAACGUUCUCAACUAUGACACGCAAAACGCGUGCUCCGUUGAAUGGAGUUUAUCAUG, -2.28; with GGAUCUUCUCGAUCUAACAAAAAAGACAAAUCUGCCACAAAGCUUGAGAGCAUCUACGGAUGCAGAGGCGGCAGCCUUCGGUGGCGCGAUACCGCCAACGUUCUCAACUAUGACACGCAAAACGCGUGCUCCGUUGAAUGGAGUUUAUCAUG, -1.7.
In the case of GGAUCUUCUCGAUCUAACAAAAAAGACAAAUCUGCCACAAAGCUUGAGAGCAUCUACGGAUGCAGAGGCGGCAGCCUUCCGUGGCGCGAUAACGCCAACGUUCUCAACUAUGACACGCAAAACGCGUGCUCCGUUGAAUGGAGUUUAUCAUG, the “polymerase ribozyme fitness (log ratio)” value was at most -4.2.
With GGAUCUUCUCGAUCUAACAAAAAAGACAAAUCUGCCACAAAGCUUGAGAGCAUCUACGGAUGCAGAGGCGUCAGCCUGCGGUGGUGCGAUAGCGCCAACGUUCUCAACUAUGACACGCAAAACGCGUGCUCCGUUGAAUGGAUUUUAUCAUG the figure was at most -4.2.
Consider GGAUCUUCUCGAUCUAACAAAAAAGACAAAUCUGCCACAAAGCUUGAGAGCAUCUACGGAUGCAGAGGCGGCAGCCUUCUGUGGCGCGAUAGCGCCAACGUUCUCAACUAUGACACGCAAAACGCGUGCUCCGUUGAAUGGAGUUUAUCAUG, for which the “polymerase ribozyme fitness (log ratio)” value was -0.898.
GGAUCUUCUCGAUCUAACAAAAAAGACAAAUCUGCCACAAAGCUUGAGAGCAUCUACGGAAGCAGAGGCGGCAGCGUUCGGUGACGCGAUAGCGCCAACGUUGUCAACUAUGACACGCAAAACGCGUGCUCCGUUGAAUGGAGUUUAUCAUG: the “polymerase ribozyme fitness (log ratio)” value was at most -4.2.
Consider GGAUCUUCUCGAUCUAACAAAAAAGACAAAUCUGCCACAAAGCUUGAGAGCAUCUACGGAAGCAGAGGCGGCAGCCUUCGGUGGCGCGAUAGCGCUAACGAUCUCAACUAUGACACGCAAAACGCGUGCUCCGUUGAAUGGAGUUUAUCAUG, for which the “polymerase ribozyme fitness (log ratio)” value is -1.95.
